According to US20160287696A1, “PAN POLLEN IMMUNOGENS AND METHODS AND USES FOR IMMUNE RESPONSE MODULATION” (LA JOLLA INSTITUTE FOR ALLERGY AND IMMUNOLOGY, priority 2013, published 2016):

B1: NTGA 2: Phl p wild type sequence, Table 2 (protein)
chain: MASPALISDTDQWKALQAHVGAIHKTHLRDLMADADRCKALTAEFEGVFLDYSRQQATTETVDKLFKLAEAAKLKEKIAKMFNGDKINSTENRSVLHVALRAPRDAVINSDGVNVVPEVWAVIDKIKQFSETFRSGSWVGATGKPLTNVVSVGIGGSFLGPLFVHTALQTDPEAAESAKGRQLRFLANVDPVDVARSIKDLDPETTLVVVVSKTFTTAETMLNARTIKEWIVSSLGPQAVSKHMIAVSTNLKLVKEFGIDPNNAFAFWDWVGGRYSVCSAVGVLPLSLQYGFPIVQRFLEGASSIDNHFRTASFEKNIPVLLGLLSVWNVSFLGYPARAILPYSQALEKLAPHIQQLSMESNGKGVSIDGVPLPYEAGEIDFGEPGTNGQHSFYQLIHQGRVIPCDFIGVIKSQQPVYLKGETSNHDELMSNFFAQPDALASRKTPAPLRSENVSENLIPHKTFKGNRPSLSFLLSSLSAYEIGQLLAIYEHRIAVQGFIWGINSFDQWGVELGKSLASQVRKQLHASRMEGKPVEGFNPSSASLLARYLAVEPSTPYDTTVLPKV
modifications: Phleum Pratense
B2: NTGA 7: Phl p wild type sequence, Table 2 (protein)
chain: MAFEKIKVANPIVEMGDEMTRVFWQSIKEKLIFPFLDLDIKYYDLGVLHRDATDDKVTVEAAEATLKYNVAIKCATITPDEDRVKEFNLKQMWRSPNGTIRNIINGTVFREPIICKNVPKLVPGWTKPICIGRHAFGDQYRATDAVLKGPGKLRLVFEGKDETVDLEVFNFTGAGGVALAMYNTDESIQGFAEASMAIAYEKKWPLYLSTKNTILKKYDGRFKDIFQAVYEADWKSKYEAAGIWYEHRLIDDMVAYALKSEGGYVWACKNYDGDVQSDFLAQGFGSLGLMTSVLMCPDGKTIEAEAAHGTVTRHFRVHQKGGETSTNSIASIFAWTRGLAHRAKLDDNARLLDFTQKLEDACVGTVESGKMTKDLALLVHGSSKVTRGDYLNTEEFIDAVAAELQSRLAAN
modifications: Phleum Pratense
B3: NTGA 24: Phl p wild type sequence, Table 2 (protein)
chain: MATKRSVGTLGEADLKGKKVFLRADLNVPLDDAQKITDDTRIRASIPTIKFLLEKGAKVILASHLGRPKGVTPKFSLKPLVPRLSELLGVEVVMANDCIGEEVEKLAAALPEGGVLLLENVRFYKEEEKNDPEFAKKLASVADLYVNDAFGTAHRAHASTEGVTKFLRPSVAGFLMQKELDYLVGAVANPKKPFAAIVGGSKVSSKIGVIESLLAKVDILILGGGMIFTFYKAQGKAVGKSLVEEDKLELATSLIETAKAKGVSLLLPTDVVVADKFAPDAESKTVSADAIPDGWMGLDVGPDSIKTFSEALDTTKTVIWNGPMGVFEFEKFAAGTDAIAKQLADLTGKGVTTIIGGGDSVAAVEKAGLADKMSHISTGGGASLELLEGKPLPGVLALDEA
modifications: Phleum Pratense
B4: NTGA 89: Phl p wild type sequence, Table 2 (protein)
chain: MSAADKVKPAASPAAEDPAAIAGNISYHAHYSPHFSPLAFGPEPAYFATAESVRDHLLQRWNDTYLHFHKTDPKQTYYLSMEYLQGRALTNAVGNLGITGAYAEAVKKFGYELEALAGQERDMALGNGGLGRLAACFLDSMATLNLPAWGYGLRYRYGLFKQRIAKEGQEEIAEDWLEKFSPWEIVRHDVVYPVRFFGHVEILPDGRRKSAGGEVLNALAYDVPIPGYKTKNAISLRLWDAKASAEDFNLFQFNDGQYESAAQLHSRAQQICAVLYPGDATEEGKLLRLKQQFFLCSASLQDIIFRFKERKSDRVSGKWSEFPSKVAVQMNDTHPTLAIPELMRLLMDEEGLGWDEAWDVTNKTVAYTNHTVLPEALEKWSQSVMRKLLPRQMEIIEEIDKRFREMVISTRKDMEGKLDSMSVLDNSPQKPVVRMANLCVVSAHTVNGVAELHSNILKEELFADYVSIWPKKFQNKTNGITPRRWLRFCNPELSEIVTKWLKTDQWTSNLDLLTGLRKFADDEKLHAEWAAAKLASKKRLAKHVLDATGVTIDPTSLFDIQIKRIHEYKRQLMNILGAVYRYKKLKEMSAEEKQKVTPRTVMVGGKAFATYTNAKRIVKLVNDVGAVVNNDPDVNKYLKVVFIPNYNVSVAEVLIPGSELSQHISTAGMEASGTSNMKFSLNGCVIIGTLDGANVEIREEVGEDNFFLFGAKADQVAGLRKDRENGLFKPDPRFEEAKQYIRSGTFGTYDYTPLLDSLEGNSGFGRGDYFLVGYDFPSYIDAQARVDEAYKDKKRWIKMSILNTAGSGKFSSDRTIDQYAKEIWGITANPVP
modifications: Phleum Pratense
B5: NTGA 27: Phl p wild type sequence, Table 2 (protein)
chain: MSAYCGKYKDELIKNAAYIGTPGKGILAADESTGTIGKRFASINVENVEDNRRALRELLFTTPGALQHISGVILFEETLYQSSKAGKPFVDILKENNVLPGIKVDKGTVELAGTDKETTTQGHDDLGKRCAKYYEAGARFAKWRAVLKIGPNEPSQLSIDQNAQGLARYAIICQENGLVPIVEPEILVDGPHDIERCAYVTEVVLAACYKALNDQHVLLEGSLLKPNMVTPGSDAKKVAPEVIAEYTVRTLQRTVPPAVPAIVFLSGGQSEEEATVNLNAMNKLQTKKPWFLSFSFGRALQQSTLKAWSGKEENVEKAQKAFLVRCKANSEATLGTYKGDATLGEGASESLHVKDYKY
modifications: Phleum Pratense
B6: NTGA 53: Phl p wild type sequence, Table 2 (protein)
chain: MDRNPVAKNAGKFMTLAGVLDYAKASNISGILIGIEHAAYLATRGLDVVDAVSNALIKSGYDKETKQQVFIQSEDPPVLSAFKKFPKFNRVFEIEFDIRDVSKPSVVEIKEFANAVKLRRSSAAQVDGFYLTGFNAVVERLRDADIQVHVGVLKNEFMSLAFDYWADPMVEIATDTWSVLADGLVTEFPSTAAAYFRSPCSDIKRNMSYTIKPGEPGALVDMAAYGALPPAPPPAPVLEPADVHRQPLPLCPTEPMFRTFRCRLPPKETGKNAEYTANLAADG
modifications: Phleum Pratense

Tested on: cultured PBMCs of the allergic donors
Assay: ELISPOT of IL-5 or IFNg production by cultured PBMCs of TG allergic donors in response to peptide
Assay type: cell-based, human
Conditions: for NTGA's containing at least one T cell epitope, Th+ (Col 2): NTGA number given = criterion met, TG allergic donors n=20; for No of PG+ & th+ peptides per NTGA / No of PP & Th+ peptides per NTGA: Table 6; for No of PG+ & th+ peptides per NTGA: PG+ peptides recognized by T cells of grass allergic donors (n=20); for No of PP & Th+ peptides per NTGA: PP peptides recognized by T cells of grass allergic donors (n=20); for # Th+: Table 7, peptides per NTGA recognized by T cells of grass allergic donors (n=20); for T cell reactivity of sequences contained in the protein: among top pan-pollen NTGA's ranked by number of PP peptides; for PG+ peptides recognized by grass allergic donors: n=20 grass allergic donors, PG+ peptides of the NTGA
From the text: Table 1 indicates for each of the 397 PG+ peptides in which non-grass pollen species a matching peptide with either less than 3, less than 2 or zero mismatches are found. The number of TG grass allergic donors (n=20) with an in vitro T cell response to the TG peptide sequence is also shown.
A set of 93 proteins from Timothy grass (TG) pollen and the assembly of 822 peptides (15 mers) predicted to promiscuously bind HLA class II molecules shown in Table 9 and the immune reactivity in allergic donors have been reported in PCT application WO 2013/119863. […] Immune reactivity was determined by the production of IL-5 or IFNg from cultured PBMCs of the allergic donors in response to stimulation with a peptide and IL-5 and IFNg were measured by ELISPOT as described in Oseroff C et al, 2010.
In short, T cell immune reactivity was determined using PBMCs isolated from study participants and stored in liquid nitrogen until further use. For experimental testing, PBMCs were thawed and expanded in vitro with TG pollen extract (50 μg/mL) or the peptide pool ([…]). The TG extract and peptide pools had each been previously titrated to determine optimal stimulation concentrations.
Cytokine production by cultured PBMCs in response to antigen stimulation was measured by ELISPOT. Cells (1×10^5 cells/well) were plated and incubated with peptide (10 μg/mL), the peptide pool (5 μg/mL), or the TG extract (50 μg/mL). Phytohaemagglutinin (10 μg/mL) and medium alone were used as positive and negative controls, respectively. Samples were considered to produce a cytokine if 100 spot-forming cells (SFCs)/10^6 PBMCs were detected, with P .05 and a stimulation index of 2 or more. Criteria for individual peptides were the same except that a minimum of 20 SFCs were required for a sample to be counted as positive.
Table 3 lists the 397 PG+ peptides and indicates for each non-grass pollen species whether a matching peptide with either less than 3, less than 2 or zero mismatches could be detected. The immune reactivity of the TG peptide was assessed as the number of TG grass allergic donors (n=20) having in vitro T cell response against the TG peptide.

Molecule	immune reactivity (SFC counts in ELISPOT) of highly conserved PG+ peptides derived from the NTGA	NTGA's containing at least one T cell epitope, Th+ (Col 2)	No of PG+ & th+ peptides per NTGA	No of PP & Th+ peptides per NTGA	# Th+	T cell reactivity of sequences contained in the protein	PG+ peptides recognized by grass allergic donors
B1	high immune reactivity	2	15	12	5	highly T cell reactive sequences	two
B2	high immune reactivity	7	9	6	4	highly T cell reactive sequences	two
B3	high immune reactivity	24	11	8	2		two
B4		89	13	0	4		two
B5	high immune reactivity	27	5	4	0		
B6		53	3	1	3	highly T cell reactive sequences	
